The values that follow come from the DeepSol protein solubility set.

The nature of the series: soluble on expression in E. coli; label from the status in PepcDB or PDB records.
“MPMDSYEKRGYLDREFRLFHLSACLPGDISYHYHDFDKILIFLRGDVDYVIEGRSYHLNPYDIVLVGHHSIHKPLLRSGDVYERIVVYLSPGYVDSFRTENCDLSRCFKDAREHCSDVLRISSLKISSLYESLIRLEKACREDGYAKELYCRILFLEFMIHLNRAASGSHLEYVSTSPSSEKVLEIMRYISENPSADFTIDSLASRFFLSKFHMMRLFKQETGYTINSYINEKRLLMAKELLGRNLPVTEVCFRCGFRNYAAFLRAYKKNFGENPKSGKRPEGRTSVDNLHAPRTEHRLQKKPLSK”: the “soluble on expression in E. coli” value is “not soluble”.
The result for “MPMYKLTPTFPPNFEVHPKIACYPVGSYHNPSFGGVGPSDAVQVESDPRKALEHKQLSLIEQLKAQTEELKKLLVSLGEAGKAERSAQKPAEKAPKEPEKSAGAASSAPGVPGAPAKLDKDAKKEARKAAKAEAVKKLASGEAPPQKSAKKTVNSTPWTVQDDRKTWETNLTLTVNLPTSLVAYEPQEQLKNATLTVRDVDLPWARALAKVGASRGVSFEGEVKNQTKEKKSSLKVVKGPAPSLQLEKTTVKSLQTIWKLLGSSLGLFSRRPQQVLSASHQAIWLGKAEQILAGSCDQSFVTREASQFLARFDSLSSQWEVCVADIVFRSLLNLGEHLPNNVELWAKKIDALIV” reads “soluble”.
The result for “MPNQNFNAQLAEAISALNTPNFTPKLMSVIHSIFDFDCAIILGYREGKHPIYLYDSIENERELLFQRYLTNSFQNDPFFQNLNQHKQQGIFTLKDVAKKGIEYQTYRKQFYDQTGWKDELSMLVEIESGRWVILYFGCLREGKRFSAAQINNLRSHFSVLQSLCQQHWKQAEFNLSEPVVRPDAYTGNMKVAIEQALSSFGIE” reads “not soluble”; that for “MPNYKLTYFNMRGRAEIIRYIFAYLDIQYEDHRIEQADWPEIKSTLPFGKIPILEVDGLTLHQSLAIARYLTKNTDLAGNTEMEQCHVDAIVDTLDDFMSCFPWAEKKQDVKEQMFNELLTYNAPHLMQDLDTYLGGREWLIGNSVTWADFYWEICSTTLLVFKPDLLDNHPRLVTLRKKVQAIPAVANWIKRRPQTKL”, “soluble”; that for “MPPMAKNAAVTDVVHLDSDSDSDNGVVGGRESASTIAGAATMAPRETLECRSFWKAGDYFVIPNVVTPTAPAIAELLDNAVDEIQNGATFVKIDKINIVKDNSPALVFQDDGGGMDPAGLRKCMSLGYSSKKSNTTIGQYGNGFKTSTMRLGADAIVFSRSTRGGTSTQSVGILSYTFLRKTGQDDVTVPMIRYVMQIDIDISKERPQPIIYGSPEDWAANLEILLKWSPFSTEDELLQQSVLLIFLFPSSTHQFEDVGTHGTKVIIYNLWLNDEGIYELSFDDDEEVTHTFPQLIYTRRDILPEDIRLRDESVNDGKRLHHKILELRSHISYHLRYSLRAYASMLYLKKFKNFKIIIRGIPVEQFNIADGFRFPEIIKYKPHTATTEQASTEIKIGFVKEAPKLAICGFNVYHKNRLIRDTGNNLDGKSAGEIRQENLQLFMRYIYKKRKIRISISYLCGDLNQILFFNRCEEYIKKENETEQTVKSLEKELEEFKSKCAHLALLVDAKKKEMQQA”, “soluble”.
Under “MPPRFNIANVLLSPDGETFFRGFRSKIHAKGSLVCTGEGDENGVFVVVDGRLRVYLVGEEREISLFYLTSGDMFCMHSGCLVEATERTEVRFADIRTFEQKLQTCPSMAWGLIAILGRALTSCMRTIEDLMFHDIKQRIAGFFIDHANTTGRQTQGGVIVSVDFTVEEIANLIGSSRQTTSTALNSLIKEGYISRQGRGHYTIPNLVRLKAAADGDRDDDDD” stands “soluble”.
For the sequence “MPQDSSQGRPRGDDVWVAEAKYDCNTRGRNSIMGNGALKYRTESKNFFNLIPEEVFHNTMKYLDLFLRNLRNIII”, the “soluble on expression in E. coli” value is “not soluble”.
The result for “MPQESSDAKRIEPPRKVDFMLKPRFTNTVPDVPFDAKFMTCPFVPLGRFVEFQPAAIYRDYKHAVICDDDMGLNVDLIDLKKYDEDPIETEIDEKDNILLEDDGAAKLIAKRSQQHSKLVPWMRKTEYISTEFNRFGVTADRQETKLGYNLKKNQQVEDMYRDKQSQIDAINKTFEDVRKPVKEHYSKKGVKAVEESFVFPDFDHWKHLFAHVQFDGDTITTEFEEEDERQQARESSVIKAMEFEDQKFAAVFVPTIGCLTSFMDDLELERPFDEDMKYEFLLSREYTFKMEHLPPRDRDVFIMYHRNNVFQYNEVDCNVKMTRKPKMALSRKSKLTLTYRNPSELEQKDMNKREAELYEQPKTRKQEILEKIQEKKEEGGDSSDQSSDSDDDKPQKSRSDSSSDVSSDDDSPRKKEPTVDSDSD” reads “not soluble”; that for “MPQLQKEWFDTWFDTPYYHILYSNRDESEAEVFLTNLMNHMAVPKGASILDLPCGKGRHTLFLAEKGYTLTGADLSVASIALAQSHAPAGVTFLVHDLRKPAWNESFDYVLNLFTSFGYFETEAEDRAAFTTLSKALKSGGSLVIDFMNVTRAVNLLKEEETKVMEGIEFQLKRYVKDGYIHKEIRFEADNTPFFFTERVKALTLDDFKEFFTFAGLTLVDTFGSYQLDAYDAAESDRLIMIAKKLEHHHHHH”, “soluble”; that for “MPRASISDTIPMTMASIDAGSVRFTARADKRHLNPLGGVHGGFAATVLDSVTGCAIHSILEAGVGYGTVDLSVKRVKAVPEDTPLVAEGRVLHVPCAIGSQRADLMLAPPRLGRDRRCPAGLEHHHHHH”, “not soluble”.
Regarding “MPRFSNKTVIITGSSNGIGRTTAILFAQEGANVTITGRSSERLEETRQIILKSGVSEKQVNSVVADVTTEDGQDQIINSTLKQFGKIDVLVNNAGAAIPDAFGTTGTDQGIDIYHKTLKLNLQAVIEMTKKVKPHLVASKGEIVNVSSIVAGPQAQPDFLYYAIAKAALDQYTRSTAIDLAKFGIRVNSVSPGMVETGFTNAMGMPDQASQKFYNFMASHKECIPIGAAGKPEHIANIILFLADRNLSFYILGQSIVADGGTSLVMGTQAHDVMSIMSSH”, the “soluble on expression in E. coli” value was “soluble”.
The result for “MPRGHAGDFPPPALSVRNRPGNSGLVLETCFAQLRSGRKDHGARVRNMTAPRSIVIGGGAFAGLALALALRQGLGPEVPVIVADPALALRPSRDPRATAIVAACRRLFEALGVWDEVAPTAQPIIDMVVTDSHLEDATRPVFLTFAGEVQPGEPFAHMVENRYLVEALAKRAEAEGVELRATPVTSYDARTEAIGVTLGDGSVIDASLLVAADGAKSKLRQRAGIATYGWDYDQSGIVVTVEHERDHNGCAEEHFLPAGPFAILPLTGRRSSLVWSESRRDAERIVALPEKEFQRELEKRFGLRLGDIKPLDKPKSFPLGYFVAQSFIAPRLALIGDAAHVIHPIAGQGLNMGLRDVAALAEVVVDAARLGIDPGQVDVLERYQRWRRFDTVAMGVATNGLNFLFSNNSPLLRGIRDIGLGLVDRLPPLKGAFIRQAAGLTGEIPRLLKGEALLEHHHHHH” reads “soluble”; that for “MPRPKILKRATVQPSAAVPVKKSTPEKEGSRQKKTNGKENASRNLQSNLEEDLEQLGFEDETVSMAQSAIENYFMQGKSASERMNNAKSRRGRRAGNGNTEEIEEDDEISNAITDFTKCDLPGLRNYITKKDNTEFEKRLEHLADNDFGKWKLYLAAGFNILLHGVGSKRDVLTEFENELSDYTYMRVDARKDGLNVKVLLGAINENMKLNCNVKRGQSTISWARSIRRKMNSQQLILIIDNIEAPDWRSDQEAFCELLENRDSVKLIATVDHIYSTFIWNSRQLSSLSFVHITINTFEIPLQELMTGDSRLLGLDARSNQSSHTMSSLDVFWKSLAVNSQKLFRLFFQMYFDTKKPVKFWDLFNAAKDDFIASTDAALRTQLVEFKDHRVLKWTRGDDGNDQLSGIVELRLVTEFLESKNMPLDEKKDE”, “not soluble”; that for “MPRVSASPRTPPPPVMDLRMSEDSAFPIDFSALTRAQLENITRVCHGSAGSVFQQAGLFTSAGLPIVNNVRLKLAQRDADAFTTFEELINLFEDFYGRLALIEDTQNNLLLSALSAGDEPGETLQ”, “not soluble”.
Under “MPSENSRPMPSFPRRRESRPWDNGNIQRLSESPRFWIPTFVGMTGCRFVGMTWCRFPYGWIRHSRAGGNLERKI” stands “not soluble”.
Under “MPSMSPIDKSWSTCPYGFLDGTHQELRRIFHLWRCKKYRSQFTEEKKATYEEKLAASELFKDKKALYPSSVSQPFKGDYVEITKNPKYQKLNSLVEDKVLLADVVSKINRANGKGTPRIFLLTKKCLVLADQKTGQVKASVPLPDLSSVFVSTQNDGFFALKLREGATSAAKGDYLLSSDRLIEIITKLYCTGAASAERNQIKIDISDEFLVQFKQDKVCVKFIQGTPKNSNSVSCKRKNNRLLEVSVPSP” stands “soluble”.
As to “MPSNDIQGLELPQSYFNAAAKRQKYAMKPGLSALEKNAVIKAAYRQIFERDITKAYSQSISYLESQVRNGDISMKEFVRRLAKSPLYRKQFFEPFINSRALELAFRHILGRGPSSREEVQKYFSIVSSGGLPALVDALVDSQEYADYFGEETVPYLRGLGVEALEHHHHHH”, the “soluble on expression in E. coli” value is “soluble”.
As to “MPSPSGGWGCGGTWARGVDGARLFSIHHQAVRPNLSTISPPKEPPMIEVRHLCKSFARKPAVQDISFSIPAGEIVGYLGPNGAGKSTTIKVLTGLLVPDSGEVRVGGLVPWKQRRQHVARLGAVFGQRTTLWWDLPVRESLELLRHVYRVPAARFAENLAGFTELLELGPFLNTPARALSLGQRMRADLAAALLHDPELLFLDEPTVGLDVVAKERIREFVKAVNAERGVTVLLTTHDLGDVERLARRVMMIDTGRLLFDGPLAELQARYGGERELWVEFEKAPAQPALPGLTLLGQDGPRVRYGFSGAAAAPIAQVTALAPVRDLAVKEPEVEATIRRIYEGNLLGSRSVREGLEHHHHHH”, the “soluble on expression in E. coli” value was “not soluble”.
For “MPSRLHSAVMSGTRDGDLNAAIRTALGKVIDPELRRPITELGMVKSIDTGPDGSVHVEIYLTIAGCPKKSEITERVTRAVADVPGTSAVRVSLDVMSDEQRTELRKQLRGDTREPVIPFAQPDSLTRVYAVASGKGGVGKSTVTVNLAAAMAVRGLSIGVLDADIHGHSIPRMMGTTDRPTQVESMILPPIAHQVKVISIAQFTQGNTPVVWRGPMLHRALQQFLADVYWGDLDVLLLDLPPGTGDVAISVAQLIPNAELLVVTTPQLAAAEVAERAGSIALQTRQRIVGVVENMSGLTLPDGTTMQVFGEGGGRLVAERLSRAVGADVPLLGQIPLDPALVAAGDSGVPLVLSSPDSAIGKELHSIADGLSTRRRGLAGMSLGLDPTRR”, the “soluble on expression in E. coli” value is listed as “not soluble”.
The result for “MPSRVPKSIFYNQVGYLISGDKRFWIQAHEPQPFALRTPEGQAVFAGMTKPVGGNWYVGDFTALRVPGTYTLTVGTLEARVVIHRRAYRDVLEAMLRFFDYQLCGVVLPEDEAGPWAHGACHTSDAKVFGTERALACPGGWHDAGDYGKYTVPAAKAVADLLLAHEYFPAALAHVRPMRSVHRAPHLPPALEVAREEIAWLLTMQDPATGGVYHKVTTPSFPPLDTRPEDDDAPLVLSPISYAATATFCAAMAHAALVYRPFDPALSSCCADAARRAYAWLGAHEMQPFHNPDGILTGEYGDAELRDELLWASCALLRMTGDSAWARVCEPLLDLDLPWELGWADVALYGVMDYLRTPRAAVSDDVRNKVKSRLLRELDALAAMAESHPFGIPMRDDDFIWGSNMVLLNRAMAFLLAEGVGVLHPAAHTVAQRAADYLFGANPLGQCYVTGFGQRPVRHPHHRPSVADDVDHPVPGMVVGGPNRHLQDEIARAQLAGRPAMEAYIDHQDSYSTNEVAVYWNSPAVFVIAALLEARGR” reads “soluble”; that for “MPSSSNSAAFSLDEFAKALDKHDYHAEKGQTVHGKICQHANEGVYVDFGGKSPGFVPVQELGLRPHAEIEDSFPLDSAWDFLVTSEQNDEGQVRLSRRQLQIQQSWENLAELEESGKTLEMVVTGTNKGGVVGDVEGLRGFIPRSHLMHKDNMDALVGQVLKAHILEANQDNNKLVLTQRRIQQAESMGKIAAGNIYEGKVAKIQPYGVFVEIEGVTGLLHVSQVSGTRVDSLNTLFAFGQAISVYVQEIDEYKNRISLSTRILETYPGELVEKFDEMMADAPNRLPLVQSKQNLGDKQEQLEKSLEHHHHHH”, “not soluble”.
